{"source": "paper PMC6623464", "about": "“HTLV-1 basic leucine zipper factor protects cells from oxidative stress by upregulating expression of Heme Oxygenase I”", "binders": {"B1": {"name": "MARE MT probe (dsDNA)", "DNA 1": "AGCTCGGAATCAATGACTCATTGTTACTCTCG", "DNA 2": "CGAGAGTAACAATGAGTCATTGATTCCGAGCT"}, "B2": {"name": "HMOX1 proximal MARE probe (dsDNA)", "DNA 1": "TGCTAGATTTTGCTGAGTCACCAGTGCCTCCT", "DNA 2": "AGGAGGCACTGGTGACTCAGCAAAATCTAGCA"}, "B3": {"name": "T-MARE probe (dsDNA)", "DNA 1": "AGCTCGGAATTGCTGACTCAGCATTACTCTCG", "DNA 2": "CGAGAGTAATGCTGAGTCAGCAATTCCGAGCT"}, "B4": {"name": "HMOX1 Distal 3 MARE probe (dsDNA)", "DNA 1": "TGTCTGTTTTCGCTGAGTCACGGTCTAGAGAT", "DNA 2": "ATCTCTAGACCGTGACTCAGCGAAAACAGACA"}, "B5": {"name": "HMOX1 Distal 1 MARE probe (dsDNA)", "DNA 1": "GTGTTTTTCCTGCTGAGTCACGGTCCCGAGGT", "DNA 2": "ACCTCGGGACCGTGACTCAGCAGGAAAAACAC"}, "B6": {"name": "HMOX1 Distal 2 MARE probe (dsDNA)", "DNA 1": "GATCTGTTTTCGCTGAGTCACGGTCCCGGTGT", "DNA 2": "ACACCGGGACCGTGACTCAGCGAAAACAGATC"}}, "key": {"MafG-His [1]": {"target": "T1, MafG-His (UniProt O15525 1-162)", "assay": "EMSA; EMSA: 0.5x TM (100 mM Tris-HCl pH 7.5, 20 mM MgSO4 as printed), 1 mM DTT, 1 ug BSA, 100 ng poly(dA)-poly(dT), 2-10 fmol probe, 20 C, 1 h; proteins stored in 50", "conditions": "protein: recombinant; tags: 6xHis (pRSET A); chain copies: 2; label: 32P end label"}, "MafG-His [2]": {"target": "T1, MafG-His", "assay": "EMSA; MafG 0.5 nM; higher apparent affinity than distal MAREs; EMSA: 0.5x TM (100 mM Tris-HCl pH 7.5, 20 mM MgSO4 as printed), 1 mM DTT, 1 ug BSA, 100 ng poly(dA)-poly(dT), 2-10 fmol probe, 20 C, 1 h; proteins stored in 50", "conditions": "protein: recombinant; tags: 6xHis (pRSET A); chain copies: 2; label: 32P end label"}, "MafG-His;T7-HBZ-bZIP [3]": {"target": "T2, MafG-His;T7-HBZ-bZIP (human?;HTLV-1, UniProt O15525;P0C746-2 1-162;120-206, |)", "assay": "EMSA; HBZ-bZIP diminished the MafG complex; authors conclude heterodimer does not bind; EMSA: 0.5x TM (100 mM Tris-HCl pH 7.5, 20 mM MgSO4 as printed), 1 mM DTT, 1 ug BSA, 100 ng poly(dA)-poly(dT), 2-10 fmol probe, 20 C, 1 h; proteins stored in 50", "conditions": "protein: recombinant;recombinant; tags: 6xHis (pRSET A);T7; copies: 1;1; label: 32P end label"}, "MafG-His [4]": {"target": "T1, MafG-His", "assay": "EMSA; MafG 0.5 or 1 nM; EMSA: 0.5x TM (100 mM Tris-HCl pH 7.5, 20 mM MgSO4 as printed), 1 mM DTT, 1 ug BSA, 100 ng poly(dA)-poly(dT), 2-10 fmol probe, 20 C, 1 h; proteins stored in 50", "conditions": "protein: recombinant; tags: 6xHis (pRSET A); chain copies: 2; label: 32P end label"}, "GST-HBZ": {"target": "GST-HBZ (HTLV-1, UniProt P0C746-2 1-206)", "sequence (P0C746 8-209, tags left off)": "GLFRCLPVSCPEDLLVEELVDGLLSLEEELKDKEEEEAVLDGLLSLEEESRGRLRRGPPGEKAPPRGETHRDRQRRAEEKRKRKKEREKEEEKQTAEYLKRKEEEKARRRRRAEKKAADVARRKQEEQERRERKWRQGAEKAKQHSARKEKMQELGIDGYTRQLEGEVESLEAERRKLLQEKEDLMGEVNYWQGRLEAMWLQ", "assay": "EMSA; HBZ 50 nM, no MafG; EMSA: 0.5x TM (100 mM Tris-HCl pH 7.5, 20 mM MgSO4 as printed), 1 mM DTT, 1 ug BSA, 100 ng poly(dA)-poly(dT), 2-10 fmol probe, 20 C, 1 h; proteins stored in 50", "conditions": "protein: recombinant; tags: GST; chain copies: 2; label: 32P end label"}, "GST-HBZ-AD": {"target": "GST-HBZ-AD (HTLV-1, UniProt P0C746-2 1-57)", "sequence (P0C746 8-60, tags left off)": "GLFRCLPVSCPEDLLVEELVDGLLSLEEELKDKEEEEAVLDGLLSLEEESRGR", "assay": "EMSA; HBZ-AD 50 nM, no MafG; EMSA: 0.5x TM (100 mM Tris-HCl pH 7.5, 20 mM MgSO4 as printed), 1 mM DTT, 1 ug BSA, 100 ng poly(dA)-poly(dT), 2-10 fmol probe, 20 C, 1 h; proteins stored in 50", "conditions": "protein: recombinant; tags: GST; label: 32P end label"}, "MafG-His;T7-HBZ-bZIP [5]": {"target": "T2, MafG-His;T7-HBZ-bZIP", "assay": "EMSA; increased over MafG alone; MafG 0.5 nM; EMSA: 0.5x TM (100 mM Tris-HCl pH 7.5, 20 mM MgSO4 as printed), 1 mM DTT, 1 ug BSA, 100 ng poly(dA)-poly(dT), 2-10 fmol probe, 20 C, 1 h; proteins stored in 50", "conditions": "protein: recombinant;recombinant; tags: 6xHis (pRSET A);T7; copies: 1;1; label: 32P end label"}, "MafG-His;T7-HBZ-bZIP [6]": {"target": "T2, MafG-His;T7-HBZ-bZIP", "assay": "EMSA; most pronounced increase over MafG alone; EMSA: 0.5x TM (100 mM Tris-HCl pH 7.5, 20 mM MgSO4 as printed), 1 mM DTT, 1 ug BSA, 100 ng poly(dA)-poly(dT), 2-10 fmol probe, 20 C, 1 h; proteins stored in 50", "conditions": "protein: recombinant;recombinant; tags: 6xHis (pRSET A);T7; copies: 1;1; label: 32P end label"}, "MafG-His;T7-HBZ-bZIP [7]": {"target": "T2, MafG-His;T7-HBZ-bZIP", "assay": "EMSA; increased over MafG alone; EMSA: 0.5x TM (100 mM Tris-HCl pH 7.5, 20 mM MgSO4 as printed), 1 mM DTT, 1 ug BSA, 100 ng poly(dA)-poly(dT), 2-10 fmol probe, 20 C, 1 h; proteins stored in 50", "conditions": "protein: recombinant;recombinant; tags: 6xHis (pRSET A);T7; copies: 1;1; label: 32P end label"}}, "data": [{"binder": "B1", "values": [{"measurement": "binding result", "setting": "MafG-His [1]", "value": "no binding"}]}, {"binder": "B2", "values": [{"measurement": "binding result", "setting": "MafG-His [2]", "value": "binds"}, {"measurement": "binding result", "setting": "MafG-His;T7-HBZ-bZIP [3]", "value": "no binding"}]}, {"binder": "B3", "values": [{"measurement": "binding result", "setting": "MafG-His [4]", "value": "binds"}, {"measurement": "binding result", "setting": "GST-HBZ", "value": "no binding"}, {"measurement": "binding result", "setting": "GST-HBZ-AD", "value": "no binding"}, {"measurement": "binding result", "setting": "MafG-His;T7-HBZ-bZIP [5]", "value": "binds"}]}, {"binder": "B4", "values": [{"measurement": "binding result", "setting": "MafG-His;T7-HBZ-bZIP [6]", "value": "binds"}]}, {"binder": "B5", "values": [{"measurement": "binding result", "setting": "MafG-His;T7-HBZ-bZIP [7]", "value": "binds"}]}, {"binder": "B6", "values": [{"measurement": "binding result", "setting": "MafG-His;T7-HBZ-bZIP [7]", "value": "binds"}]}]}
